# Reference: patent US20130017578
# Like-named read-outs stand apart in the source and are kept apart here.
# What was measured:
# [1] = molecular target: Int5 (Int-h/218 mutein) Int-h/218 substitutions (not given),I43A (Bacteriophage lambda) (UniProt P03700); conditions: attH x attPH, relative to Int-h/218 on attB x attP
# [2] = molecular target: Int1 (Int-h/218 mutein) Int-h/218 substitutions (not given),I43A,H61R (Bacteriophage lambda) (UniProt P03700); conditions: attH x attPH, relative to Int-h/218 on attB x attP
# [3] = molecular target: Int-h/218 (parental lambda integrase mutant) Int-h/218 substitutions (not given) (Bacteriophage lambda) (UniProt P03700); conditions: attB x attP recombination, real-time PCR; reference activity
# [4] = molecular target: Int5 (Int-h/218 mutein) Int-h/218 substitutions (not given),I43A (Bacteriophage lambda) (UniProt P03700); experiment: cell_activity; conditions: attB x attP GFP reporter in HEK293, relative to Int-h/218
# [5] = molecular target: Int1 (Int-h/218 mutein) Int-h/218 substitutions (not given),I43A,H61R (Bacteriophage lambda) (UniProt P03700); experiment: cell_activity; conditions: attB x attP GFP reporter in HEK293, relative to Int-h/218
sequence,measurement,setting,value
CAGCTTTCTTATACCAAGTTG (double strand) [attPH],binding signal,[1],100%
same,binding signal,[2],140%
CTGCTTTCTTATACCAAGTGG (double strand) [attH],binding signal,[1]; 9-fold over Int-h/218 on genomic attH (FIG. 4D),100%
same,binding signal,[2]; 7-fold over Int-h/218 when translated in vitro (FIG. 4A),140%
CTGCTTTTTTATACTAACTTG (double strand) [attB core],binding signal,[3],100%
same,binding signal,[4],65%
same,binding signal,[5],50%
CAGCTTTTTTATACTAAGTTG (double strand) [attP core],binding signal,[3],100%
same,binding signal,[4]; attH x attP <1% activity,65%
same,binding signal,[5]; attH x attP <1% activity,50%
